Measurements reported in patent publication US20130022590, “Compositions Comprising Zinc Finger Domains and Uses Therefor” (published 2013).

Key:
ZRANB2-F2 R82N = biological target: T1, ZRANB2-F2 R82N (Homo sapiens, UniProt O95218 O95218:65-95, R82N); experiment: FP; also about 2-fold increase versus WT F2; conditions: label: 5'-fluorescein
T1 chain: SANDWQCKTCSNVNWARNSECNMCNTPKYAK
Description: The anisotropy titrations were performed with a starting RNA concentration of 50 nM in a buffer comprising either 10 mM Tris (pH 8.0), 50 mM KCl, 5 mM MgCl₂, 0.05 mg/mL heparin, and 1 mM DTT (for GST fusion constructs) or 10 mM Mops (pH 7.3), 50 mM NaCl, 0.05 mg/mL heparin, and 1 mM DTT (for ZRANB2-F12). RNasin (Promega) was also added to the protein solution to a concentration of 2 units/μL. Protein was titrated into this starting solution and anisotropy values measured on a Cary Eclipse fluorescence spectrophotometer fitted with manual polarizer and long-pass filters set to 475 and 515 nm for excitation and emission, respectively. Excitation and emission wavelengths were set at 495 and 520 nm, respectively (10-nm slits) and the temperature was maintained at 25° C. by using a block temperature controller. Association constants were determined by nonlinear least squares regression analysis using a 1:1 binding model. […]

EKLF-F123 = EKLF-F123 (UniProt P46099 P46099:275-357); experiment: FP; higher affinity than poly(C) or AGGUAA; also HSQC titration; conditions: tags: zinc fingers 1-3
ZRANB2-F2 (untagged) = biological target: T2, ZRANB2-F2 (untagged) (Homo sapiens, UniProt O95218 O95218:65-95); experiment: structure; crystal structure 1.4 A; W79 stacks between G2 and G3
T2 chain: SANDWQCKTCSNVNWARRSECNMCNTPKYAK

[1] = biological target: EWS RanBP2-type zinc finger (Homo sapiens, UniProt Q01844 Q01844:518-549); experiment: FP; value in figure only; conditions: tags: expressed as GST fusion
Description: (§1) Fluorescence Anisotropy titrations e.g., as shown in FIGS. 1D-F, 8 and 35, were carried out using standard protocols. In brief, 5′-Fluorescein-labeled RNA oligonucleotides were quantified by A₂₆₀, correcting for fluorescein absorbance by using A₄₉₃. For single-site experiments, the sequence […] (SEQ ID NO: 28), or single base mutants thereof, was used. For double-site experiments, two AGGUAA sites were separated by different length sequences as indicated, and the total oligonucleotide lengths were kept constant by the symmetrical addition of adenines to each end. The anisotropy titrations were performed with a starting RNA concentration of 50 nM in a buffer comprising either 10 mM Tris (pH 8.0), 50 mM KCl, 5 mM MgCl₂, 0.05 mg/mL heparin, and 1 mM DTT (for GST fusion constructs) or 10 mM Mops (pH 7.3), 50 mM NaCl, 0.05 mg/mL heparin, and 1 mM DTT (for ZRANB2-F12). RNasin (Promega) was also added to the protein solution to a concentration of 2 units/μL. Protein was titrated into this starting solution and anisotropy values measured on a Cary Eclipse fluorescence spectrophotometer fitted with manual polarizer and long-pass filters set to 475 and 515 nm for excitation and emission, respectively. […] Association constants were determined by nonlinear least squares regression analysis using a 1:1 binding model.

ZRANB2-F12 delta47-61 = ZRANB2-F12 delta47-61 (Homo sapiens, UniProt O95218 O95218:1-46+62-95, del47-61); experiment: FP; about 30-51e6 stated; order comparable to wild-type F12; conditions: label: 5'-fluorescein
Description: as §1, with “The anisotropy titrations were performed with a starting RNA concentration of 50 nM in a buffer comprising either 10 mM Tris (pH 8.0), 50 mM KCl, 5 mM MgCl₂, 0.05 mg/mL heparin, and 1 mM DTT (for GST fusion constructs) or 10 mM Mops (pH 7.3), 50 mM NaCl, 0.05 mg/mL heparin, and 1 mM DTT (for ZRANB2-F12). RNasin (Promega) was also added to the protein solution to a concentration of 2 units/μL.” left out
(§2) The inventors have employed deletion mutagenesis to thereby identify a minimal inter-finger linker region of ZRANB2 required for specific ssRNA-binding. […] The deletion constructs were then tested for an ability to bind the ssRNA substrate 5′-GGUNXGGU-3′ comprising a repeat of the GGU core sequence using fluorescence anisotropy titration.

ZRANB2-F12 [2] = biological target: T3, ZRANB2-F12 (Homo sapiens, UniProt O95218 O95218:1-95); experiment: FP; range stated for deletion construct and comparable wild type; conditions: tags: GST removed for FA, gel shift and SPR; label: 5'-fluorescein
Description: as §1, with “The anisotropy titrations were performed with a starting RNA concentration of 50 nM in a buffer comprising either 10 mM Tris (pH 8.0), 50 mM KCl, 5 mM MgCl₂, 0.05 mg/mL heparin, and 1 mM DTT (for GST fusion constructs) or 10 mM Mops (pH 7.3), 50 mM NaCl, 0.05 mg/mL heparin, and 1 mM DTT (for ZRANB2-F12). RNasin (Promega) was also added to the protein solution to a concentration of 2 units/μL.” left out
as §2

ZRANB2-F12 delta45-64 [3] = biological target: T4, ZRANB2-F12 delta45-64 (Homo sapiens, UniProt O95218 O95218:1-44+65-95, del45-64); experiment: FP; lower affinity than F122; conditions: label: 5'-fluorescein
Description: as §1, with “model. […]” for “model.”

ZRANB2-F12 [4] = biological target: T3, ZRANB2-F12; experiment: FP; affinity increases with spacing; value in figure only; conditions: tags: GST removed for FA, gel shift and SPR; label: 5'-fluorescein
Description: as §1, with “The anisotropy titrations were performed with a starting RNA concentration of 50 nM in a buffer comprising either 10 mM Tris (pH 8.0), 50 mM KCl, 5 mM MgCl₂, 0.05 mg/mL heparin, and 1 mM DTT (for GST fusion constructs) or 10 mM Mops (pH 7.3), 50 mM NaCl, 0.05 mg/mL heparin, and 1 mM DTT (for ZRANB2-F12). RNasin (Promega) was also added to the protein solution to a concentration of 2 units/μL.” left out
The importance of the spacing between AGGUAA motifs was assessed by measuring binding of F12 to double sites that were separated by −1 to 8 nt (where −1 denotes the sequence […] SEQ ID NO: 33; FIG. 1E, lanes 5-10).

ZRANB2-F12 delta45-64 [5] = biological target: T4, ZRANB2-F12 delta45-64; experiment: FP; conditions: label: 5'-fluorescein

Chain of EWS RanBP2-type zinc finger (Q01844 518-549, one chain of several): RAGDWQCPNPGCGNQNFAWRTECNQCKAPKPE
Chain of EKLF-F123 (P46099 275-357, one chain of several): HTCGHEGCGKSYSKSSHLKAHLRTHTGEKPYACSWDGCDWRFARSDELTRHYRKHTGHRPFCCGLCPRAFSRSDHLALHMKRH

B1: AGUUAA (3U) (ssRNA)
RNA: AGUUAA
binding signal (ZRANB2-F2 R82N): ~2 fold higher than AGGUAA

B2: U9 (ssRNA)
RNA: UUUUUUUUU
binding result (EKLF-F123): binds

B3: AGGUAA hexamer (ssRNA)
RNA: AGGUAA
binding result (ZRANB2-F2 (untagged)): binds | binding result [1]: binds

B4: GGUGGU 13-mer (ssRNA)
RNA: AAAGGUGGUAAAA
binding result (ZRANB2-F12 delta47-61): binds | binding result (ZRANB2-F12 [2]): binds | binding result (ZRANB2-F12 delta45-64 [3]): binds

B5: double site spacing -1 (ssRNA)
RNA: AGGUAAGGUAA
binding result (ZRANB2-F12 [4]): binds

B6: GGUGGUGGU 13-mer (ssRNA)
RNA: AAGGUGGUGGUAA
Ka (ZRANB2-F12 delta45-64 [5]): ~2.5e+07 M⁻¹
